{"source": "patent CN114891097A", "about": "(INST MICROBIOLOGY CAS, dated 2022)", "target": "SARS-CoV-2 RBD-hFc蛋白 (SARS-CoV-2 RBD fused to a human Fc tag) (SARS-CoV-2; human)"}
{"binder": "S43纳米抗体 (alpaca-derived nanobody S43, with C-terminal 6xHis tag) (VHH) VHH: QVQLQESGGGLVQPGGSLRLTCAPSGFTLDYYAIGWFRQAPGKEREGVSCISSNNSTYYADSVKGRFTISRDNAKNTVYLQMNSLKPEDTAVYYCAAEPDYSGVYYYTCGWTDFGSWGQGTQVTVSS", "values": [{"measurement": "Kd", "result": 0.12, "unit": "nM"}]}
